Assay results: the supplement of paper PMC9732359
± gives the uncertainty stated by the source.

Assay: protein stability index of a GFP-peptide fusion (yeast GPS) (PSI 1-4); higher = more stable; sorted into four equal gates, so the index is relative within each strain
In short: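 The protein stability index combines read frequencies across sorting gates, each weighted by its gate number and then summed. To obtain those frequencies, a pooled yeast library of GFP fusions to tiled 17-residue yeast protein peptides, on a plasmid also expressing Cherry, was grown to mid-log phase in leucine-free medium. The cells were sorted into four equal gates by GFP/Cherry ratio before plasmid amplification by PCR and Illumina sequencing.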

Sequence | protein stability index (doa10∆) | protein stability index (pdr5∆) | protein stability index (san1∆) | protein stability index (ubr1∆)
GMYALRERRIHVTQEDF [RPT6] | 1.81 ± 0.074 | 1.94 ± 0.054 | 1.59 ± 0.099 | 2.49 ± 0.1
VPSHVPQVLINRDPVKH [SIR2] | 2.52 ± 0.13 | 3 ± 0.088 | 3.06 ± 0.12 | 2.76 ± 0.098
LQILAMLLLNIFISSDH [YMR129W/POM152] | 1.72 ± 0.058 | 1.36 ± 0.061 | 1.35 ± 0.08 | 1.13 ± 0.05
AFHLHCINKWIKTRDAC [HRT1] | 1.86 ± 0.089 | 2 ± 0.076 | 1.66 ± 0.14 | 2.19 ± 0.065
QMMSKGIGALFTQQELQ [RPC34] | 3.3 ± 0.11 | 3.26 ± 0.12 | 3.12 ± 0.07 | 3.34 ± 0.08
GALKGASDGGLYVPHSE [RPL5] | 1.91 ± 0.083 | 1.88 ± 0.073 | 2.83 ± 0.088 | 2.67 ± 0.052
SASTSATGISGSVSEET [ECM29] | 3.34 ± 0.047 | 3.25 ± 0.047 | 3.12 ± 0.041 | 3.33 ± 0.042
EKIKDIHNTKLPAYSGE [POP1] | 3.09 ± 0.059 | 3.04 ± 0.057 | 2.96 ± 0.048 | 2.79 ± 0.08
TPTDVIGVVSLTNGVTE [RRP6] | 3.21 ± 0.14 | 2.87 ± 0.07 | 3.03 ± 0.098 | 3.15 ± 0.059
KQFFQMTPLLVNCLELL [PCI8] | 1.4 ± 0.034 | 1.32 ± 0.034 | 1.26 ± 0.067 | 1.23 ± 0.025
NEPTQKDEEETEYFENK [DSN1] | 3.58 ± 0.27 | 3.54 ± 0.23 | 2.71 ± 0.29 | 3.12 ± 0.23
DLGIKYDPSIGIFGMDF [RPL11A] | 2.85 ± 0.04 | 3.06 ± 0.041 | 2.96 ± 0.039 | 3 ± 0.037
SEVRKAVSIETALEHKV [FAS2] | 1.67 ± 0.12 | 1.4 ± 0.095 | 1.35 ± 0.12 | 1.39 ± 0.051
EATAASHERFFLSQGLH [CSN12] | 1.43 ± 0.16 | 1.28 ± 0.1 | 1.09 ± 0.24 | 1.35 ± 0.18
CDYYNTFLLNNKNIDIG [RPN2] | 3.14 ± 0.087 | 3.04 ± 0.076 | 2.85 ± 0.069 | 2.79 ± 0.086
MGGVSALRGMFKDRFKD [FAS2] | 3.56 ± 0.068 | 3.55 ± 0.067 | 3.41 ± 0.059 | 3.54 ± 0.069
TPAAATSPIDIREKVAK [SNF2] | 2.75 ± 0.11 | 2.84 ± 0.11 | 2.63 ± 0.11 | 3.01 ± 0.1
QPQPQPQQQQQHLQFNG [YDL088C/ASM4] | 2.6 ± 0.036 | 2.78 ± 0.038 | 2.5 ± 0.051 | 2.919 ± 0.024
NKKIYQWNKLTSFDIKR [POP6] | 2.93 ± 0.074 | 2.95 ± 0.079 | 2.18 ± 0.2 | 3.03 ± 0.083
SDEKKDGDASKPAFSFG [YJL041W/NSP1] | 3.24 ± 0.092 | 2.64 ± 0.23 | 3.25 ± 0.056 | 3.23 ± 0.1
SKPESSVLQLIVSEDHI [MED1] | 2.14 ± 0.16 | 2.17 ± 0.079 | 2.06 ± 0.14 | 2.7 ± 0.092
ELAESTTTKIIDSTDHI [LRP1] | 2.95 ± 0.1 | 3.11 ± 0.1 | 2.86 ± 0.24 | 2.63 ± 0.12
LEQKIHEVEEILNELQP [SMC1] | 3.04 ± 0.15 | 2.73 ± 0.22 | 2.99 ± 0.17 | 3.14 ± 0.2
ISDDDDSALRYSILGDR [POP4] | 3.12 ± 0.066 | 2.97 ± 0.093 | 2.61 ± 0.052 | 2.72 ± 0.089
ENLMVQRTCLMTVTFLI [YCS4] | 2.09 ± 0.053 | 1.97 ± 0.045 | 2.16 ± 0.07 | 2.04 ± 0.038
SEGYQKTFSRLDALTRH [RPN4] | 1.17 ± 0.091 | 1.56 ± 0.15 | 1.06 ± 0.24 | 

Sequence | protein stability index (doa10∆) | protein stability index (pdr5∆) | protein stability index (san1∆) | protein stability index (ubr1∆)
KSSELELQKLVHDLNKY [SMC2] | 3.22 ± 0.088 | 3.41 ± 0.079 | 3.36 ± 0.045 | 3.4 ± 0.05
AKILSQAPTELELQVAQ [RPS7A] | 2.48 ± 0.048 | 2.75 ± 0.052 | 2.3 ± 0.053 | 2.5 ± 0.046
EHFSHFGHIMEDFQVLR [YDL088C/ASM4] | 3.03 ± 0.063 | 2.92 ± 0.045 | 2.54 ± 0.059 | 2.44 ± 0.045
NIIQAKRDAKAAGSYYV [RPL7A] | 3.39 ± 0.11 | 3.24 ± 0.082 | 3.11 ± 0.057 | 2.64 ± 0.087
MAKFLKAGKVAVVVRGR [RPL27A] | 1.53 ± 0.093 | 1.67 ± 0.057 | 1.57 ± 0.14 | 1.54 ± 0.092
VLKSHSNDFEEGSTIRY [YMR129W/POM152] | 2.44 ± 0.075 | 2.8 ± 0.099 | 2.93 ± 0.067 | 2.88 ± 0.068
TRINGLNSNNSIIGNKN [REC8] | 3.2 ± 0.089 | 3.04 ± 0.072 | 3.21 ± 0.048 | 2.98 ± 0.051
QQIQEQVLKCKESWDPN [YGR119C/NUP57] | 3.3 ± 0.17 |  | 3.33 ± 0.25 | 3.52 ± 0.22
TKDKAKKIREIYRYDEM [BRR2] | 2.58 ± 0.14 | 2.71 ± 0.1 | 2.46 ± 0.14 | 2.89 ± 0.059
PSLNKTINGKVNGRTKS [GAL11] | 3.06 ± 0.14 | 3.07 ± 0.13 | 2.98 ± 0.14 | 3.11 ± 0.14
LDENKWYKFNDDKVSVV [UBP6] | 2.87 ± 0.12 | 3.06 ± 0.091 | 3.06 ± 0.1 | 2.97 ± 0.081
VSMVKRAIDSLIQKGYL [CDC53] | 1.74 ± 0.053 | 1.82 ± 0.058 | 2.03 ± 0.11 | 1.74 ± 0.052
AASLIMPFLDNQVNFKN [PRE7] |  | 2.7 ± 0.081 | 1.31 ± 0.17 | 1.39 ± 0.093
MFHGAKGPLLIERIGHL [PCI8] | 2.5 ± 0.22 |  |  | 
ERKRKSVRGAIVGPDLA [RPS6A] | 3.38 ± 0.091 | 3.34 ± 0.075 | 3.33 ± 0.055 | 3.01 ± 0.13
FDERIKFANQLHDEYLV [RPN3] | 1.65 ± 0.092 | 2.02 ± 0.12 | 1.45 ± 0.14 | 1.36 ± 0.076
PKYESLKLEYYNLLVKI [RPN5] | 2.1 ± 0.084 | 1.48 ± 0.1 | 1.12 ± 0.3 | 1.24 ± 0.059
SGKSNFFAAIRFVLSDD [SMC3] | 3.02 ± 0.11 | 3.36 ± 0.096 | 3.38 ± 0.08 | 3.22 ± 0.052
ITQIVEKDFCTSCLQNN [SRB8] | 2.35 ± 0.065 | 2.71 ± 0.077 | 2.68 ± 0.081 | 2.28 ± 0.049
SNQAVGQTWNFPEVFQV [SRB8] | 3.11 ± 0.21 | 3.36 ± 0.2 | 3.11 ± 0.14 | 
LYGTAIGARSQGAKTYL [PRE5] | 2.88 ± 0.13 | 3.21 ± 0.079 | 3.04 ± 0.078 | 3.13 ± 0.079
LVQKFGGADQVTRTQQW [SWI1] | 3.08 ± 0.13 | 3.06 ± 0.088 | 2.88 ± 0.13 | 2.78 ± 0.076
IALMGQDNKKIYVHVRR [ESC2] | 2.33 ± 0.081 | 2.57 ± 0.12 | 2.47 ± 0.17 | 2.53 ± 0.068
RRMGILKKILDQCKKQR [RPO31] | 1.63 ± 0.16 | 1.7 ± 0.29 | 1.61 ± 0.23 | 1.9 ± 0.098
RHGFNRSNTGALMRCSF [RPO21] | 2.71 ± 0.059 | 3.01 ± 0.064 | 2.85 ± 0.061 | 2.88 ± 0.079
SRTDAVRCKDCGHRILL [RPC10] | 2.62 ± 0.16 | 3.31 ± 0.19 | 2.66 ± 0.13 | 3.02 ± 0.078
